{"source": "patent US20260250420A1", "about": "(SICHUAN KELUN BIOTECH BIOPHARMACEUTICAL, published 2026)", "binders": {"B1": {"name": "64A10HZ (anti-human PTK7 humanized antibody) (antibody, human IgG1, kappa, V domains shown)", "VH": "QVQLQESGPGLVKPSETLSLTCTVSGFSLTSYGVYWVRQPPGKGPEWLGVIWTSGNTNYNPSLKSRLTISKDNSKNQVSLKLSSVTAADTAVYYCVKHDGGNYVGVMNYWGQGTLVTVSS", "VL": "EIVMTQSPDFQSVTPKEKVTITCRASQSISDYLHWYQQKPDQSPKLLIKYASQSISGVPSRFSGSGSGSDFTLTINSLEAEDAATYYCQNGHSFPPTFGQGTKLEIKR", "notes": "Human IgG1 heavy chain constant region and human Kappa light chain constant region; expressed in CHO-S cells"}, "B2": {"name": "Hu24 (PTK7 control antibody, taken from Hu24 in the Patent CN201580030255) (antibody)", "chain 1": "QVQLVQSGPEVKKPGASVKVSCKASGYTFTDYAVHWVRQAPGKRLEWIGVISTYNDYTYNNQDFKGRVTMTRDTSASTAYMELSRLRSEDTAVYYCARGNSYFYALDYWGQGTSVTVSS", "chain 2": "EIVLTQSPATLSLSPGERATLSCRASESVDSYGKSFMHWYQQKPGQAPRLLIYRASNLESGIPARFSGSGSGTDFTLTISSLEPEDFAVYYCQQSNEDPWTFGGGTKLEIK"}, "B3": {"name": "101A6HZ (anti-human PTK7 humanized antibody) (antibody, human IgG1, kappa)", "heavy": "not shown", "light": "DIVMTQSPDSLAVSLGERATINCKASQDVGSAVIWYQQKPGQSPKLLIYWASTRHTGVPDRFSGSGSGTDFTLTISSLQAEDVAVYYCQQYSSYPLTFGQGTKLEIKRTVAAPSVFIFPPSDEQLKSGTASVVCLLNNFYPREAKVQWKVDNALQSGNSQESVTEQDSKDSTYSLSSTLTLSKADYEKHKVYACEVTHQGLSSPVTKSFNRGEC"}}, "key": {"[1]": {"target": "T1, human PTK7 protein (extracellular sequence of human PTK7 with C-terminal 6×His tag) (human, UniProt Q13308 31-704)", "T1 construct": "extracellular domain; Expressed transiently in HEK293 cells; also called human PTK7-His; human PTK7-His protein", "T1 sequence": "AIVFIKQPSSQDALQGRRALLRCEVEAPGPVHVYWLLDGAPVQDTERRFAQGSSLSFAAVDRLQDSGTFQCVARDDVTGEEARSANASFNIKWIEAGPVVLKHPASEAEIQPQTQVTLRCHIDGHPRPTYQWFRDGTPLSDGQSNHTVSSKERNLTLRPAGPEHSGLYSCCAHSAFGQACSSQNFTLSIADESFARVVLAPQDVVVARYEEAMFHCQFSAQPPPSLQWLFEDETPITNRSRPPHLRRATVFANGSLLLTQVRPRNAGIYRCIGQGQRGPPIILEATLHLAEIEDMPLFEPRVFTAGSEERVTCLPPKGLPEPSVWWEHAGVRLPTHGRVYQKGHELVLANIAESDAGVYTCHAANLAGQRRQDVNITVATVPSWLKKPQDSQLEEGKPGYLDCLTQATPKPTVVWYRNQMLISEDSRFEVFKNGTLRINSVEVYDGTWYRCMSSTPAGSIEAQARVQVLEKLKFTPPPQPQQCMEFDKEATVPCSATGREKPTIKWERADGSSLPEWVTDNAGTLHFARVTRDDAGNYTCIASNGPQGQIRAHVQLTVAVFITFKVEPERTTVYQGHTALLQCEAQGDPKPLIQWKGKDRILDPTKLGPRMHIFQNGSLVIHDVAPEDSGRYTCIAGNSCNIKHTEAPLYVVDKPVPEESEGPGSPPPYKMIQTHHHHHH", "experiment": "ELISA, coated human PTK7-His protein 1 µg/ml", "description": "The original data was imported into software for nonlinear curve fitting, and the EC₅₀ of binding of each antibody to the human PTK7 was calculated, respectively."}, "[2]": {"target": "T2, monkey PTK7 protein (extracellular sequence of monkey PTK7 with C-terminal 6×His tag) (monkey)", "T2 chain": "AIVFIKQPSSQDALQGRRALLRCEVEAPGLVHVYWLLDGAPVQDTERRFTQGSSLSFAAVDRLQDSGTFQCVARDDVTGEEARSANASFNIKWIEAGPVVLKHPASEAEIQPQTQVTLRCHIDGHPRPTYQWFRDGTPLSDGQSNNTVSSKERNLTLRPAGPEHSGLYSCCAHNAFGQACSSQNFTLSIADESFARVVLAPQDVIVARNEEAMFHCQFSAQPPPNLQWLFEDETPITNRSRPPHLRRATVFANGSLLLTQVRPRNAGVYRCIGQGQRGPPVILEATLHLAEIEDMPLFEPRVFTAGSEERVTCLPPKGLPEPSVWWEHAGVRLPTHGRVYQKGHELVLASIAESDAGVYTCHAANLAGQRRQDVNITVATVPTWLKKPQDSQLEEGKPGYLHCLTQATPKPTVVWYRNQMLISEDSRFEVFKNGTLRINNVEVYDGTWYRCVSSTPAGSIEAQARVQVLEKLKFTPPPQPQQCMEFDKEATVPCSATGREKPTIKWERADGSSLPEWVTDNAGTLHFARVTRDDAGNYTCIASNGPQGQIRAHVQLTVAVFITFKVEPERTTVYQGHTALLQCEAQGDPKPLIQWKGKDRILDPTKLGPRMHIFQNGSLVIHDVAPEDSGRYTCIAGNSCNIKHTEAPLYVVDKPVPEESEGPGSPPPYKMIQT", "experiment": "ELISA, coated monkey PTK7 protein"}}}
{"binder": "B1", "values": [{"measurement": "EC50", "setting": "[1]", "value": 0.0155, "unit": "µg/mL"}, {"measurement": "EC50", "setting": "[2]", "value": 0.0201, "unit": "µg/mL"}]}
{"binder": "B2", "values": [{"measurement": "EC50", "setting": "[1]", "value": 0.0466, "unit": "µg/mL"}, {"measurement": "EC50", "setting": "[2]", "value": 0.134, "unit": "µg/mL"}]}
{"binder": "B3", "values": [{"measurement": "EC50", "setting": "[1]", "value": 0.0266, "unit": "µg/mL"}, {"measurement": "EC50", "setting": "[2]", "value": 1.23, "unit": "µg/mL"}]}
